“And” between values parts separate entries of the source, which are not always exact repeats. Equal values may be shown once.
Key:
[1] = target: dimeric ubiquinol:cytochrome c oxidoreductase (complex III, III2) of Euglena gracilis mitochondria (Euglena gracilis (endogenous in mitochondria)); assay: native gel or EMSA; two-dimensional BN/SDS Tricine-PAGE (12%) of digitonin-extracted complexes; subunits told by their electrophoretic profile
[2] = target: F1FO ATP synthase (complex V) of Euglena gracilis mitochondria (Euglena gracilis (endogenous in mitochondria)); assay: native gel or EMSA; BN-PAGE, 3-10% acrylamide gradient, of mitochondria solubilised with DDM 4.0 g/g protein (3.2% w/v), 4 °C, pH 8.4, 100 mM NaCl; Coomassie and in-gel NADH-dehydrogenase and ATPase activity
[3] = target: F1FO ATP synthase (complex V) of Euglena gracilis mitochondria (Euglena gracilis (endogenous in mitochondria)); assay: as above; remark: listed apart in the source
[4] = target: F1FO ATP synthase (complex V) of Euglena gracilis mitochondria (Euglena gracilis (endogenous in mitochondria)); assay: native gel or EMSA; purified dimeric ATP synthase incubated with DDM at room temperature for 10 min; species assigned by size; kind of gel not told in the legend
[5] = target: F1FO ATP synthase (complex V) of Euglena gracilis mitochondria (Euglena gracilis (endogenous in mitochondria)); assay: native gel or EMSA; BN-PAGE, 3-10% acrylamide gradient with 0.05% digitonin, of mitochondria solubilised with digitonin 8.0 g/g protein (6.4% w/v; up to 12 g/g), 4 °C; Coomassie and in-gel NADH-dehydrogenase and ATPase activity
[6] = target: F1FO ATP synthase (complex V) of Euglena gracilis mitochondria (Euglena gracilis (endogenous in mitochondria)); assay: native gel or EMSA; two-dimensional BN/BN-PAGE of digitonin-solubilised mitochondria; second BN-PAGE with 0.02% DDM in the cathode buffer, which dissociates the supercomplexes; NADH-dehydrogenase activity stain

Row | stoichiometry N [1] | stoichiometry N [2] | stoichiometry N [3] | stoichiometry N [4] | stoichiometry N [5] | stoichiometry N [6] | Substance
1 | 1 and 2 |  |  |  |  |  | cytochrome c oxidase (complex IV) of Euglena gracilis mitochondria
2 |  | 4 | 2 | 2 | 2 and 4 | 4 | F1FO ATP synthase (complex V) of Euglena gracilis mitochondria

— paper PMC8124061
